According to patent US6428967:

Assays:
[1] = target: wild type human LDL receptor on CHO cells (human) (UniProt P01130); assay: 125I-LDL surface binding on CHO cells expressing the wild type human LDL receptor, with or without Dab1
[2] = target: wild type human LDL receptor on CHO cells (human) (UniProt P01130); assay: cell-based or functional assay

wild type human LDL receptor on CHO cells (human), sequence (P01130 22-860): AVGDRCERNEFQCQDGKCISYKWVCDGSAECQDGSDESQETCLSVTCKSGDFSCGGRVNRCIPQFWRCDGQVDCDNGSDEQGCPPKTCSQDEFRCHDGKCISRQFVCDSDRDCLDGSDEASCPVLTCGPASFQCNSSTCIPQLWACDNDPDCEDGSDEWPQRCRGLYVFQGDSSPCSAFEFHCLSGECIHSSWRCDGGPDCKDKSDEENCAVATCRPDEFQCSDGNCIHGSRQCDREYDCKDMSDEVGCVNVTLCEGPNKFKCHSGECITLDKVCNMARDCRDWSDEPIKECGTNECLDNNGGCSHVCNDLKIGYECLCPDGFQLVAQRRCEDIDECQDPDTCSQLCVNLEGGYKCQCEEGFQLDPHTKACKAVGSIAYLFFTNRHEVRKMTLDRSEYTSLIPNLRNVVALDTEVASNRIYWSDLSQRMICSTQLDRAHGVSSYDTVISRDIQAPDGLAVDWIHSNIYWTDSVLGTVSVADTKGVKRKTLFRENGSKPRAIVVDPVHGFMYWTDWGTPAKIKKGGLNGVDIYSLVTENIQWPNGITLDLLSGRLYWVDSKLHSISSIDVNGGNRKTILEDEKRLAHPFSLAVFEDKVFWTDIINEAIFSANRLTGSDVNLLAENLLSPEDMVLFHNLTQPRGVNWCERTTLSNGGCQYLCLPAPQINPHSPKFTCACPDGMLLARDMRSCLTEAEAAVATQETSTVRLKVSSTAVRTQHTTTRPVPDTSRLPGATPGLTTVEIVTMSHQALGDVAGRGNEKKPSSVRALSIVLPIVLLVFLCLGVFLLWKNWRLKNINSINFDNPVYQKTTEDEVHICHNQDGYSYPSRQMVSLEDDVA

In the case of 125I labeled human LDL, P04114 28-4563, the fold of LDL bound on the cell surface, cells with Dab1 against cells without Dab1 [1] is reported as 2 times.
“Dab1 expressed in CHO cells from pcDNA3.1/ZEO DAB555 (from UniProt P97318 1-555)” showed an LDL bound on the cell surface (125I labeled human LDL) [2] of 2 times.
